Publication PMC5014086 (2016)
Changes are numbered by the printed parent chain. Names may count otherwise. Where two headings read alike, the source gives them in different places. Each block holds one binder with its values, some of them ahead of it.

What was measured:
Experiment in all cases: SPR
[1] = target: T1, wild-type KRM1ECD as immobilised for SPR (human, UniProt Q96MU8 21-392)
T1 chain: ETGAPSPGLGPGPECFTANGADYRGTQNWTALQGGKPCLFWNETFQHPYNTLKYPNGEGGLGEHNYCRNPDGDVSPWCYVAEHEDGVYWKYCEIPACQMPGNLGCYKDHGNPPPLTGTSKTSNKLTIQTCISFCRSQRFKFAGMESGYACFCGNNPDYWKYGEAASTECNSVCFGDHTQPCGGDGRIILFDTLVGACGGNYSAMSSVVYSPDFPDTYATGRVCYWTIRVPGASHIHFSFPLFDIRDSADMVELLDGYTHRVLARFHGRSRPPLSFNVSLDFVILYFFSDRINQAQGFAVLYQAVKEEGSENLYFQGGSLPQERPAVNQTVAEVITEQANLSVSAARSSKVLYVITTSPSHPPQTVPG

[2] = target: T1, wild-type KRM1ECD as immobilised for SPR
LRP6_(PE1PE2) fragment = target: T2, LRP6_(PE1PE2) fragment; conditions: chain shown with the change; 25 µM LRP6PE1PE2 (highest concentration of the titration); parent: est. 100; read off a plot
T2 chain: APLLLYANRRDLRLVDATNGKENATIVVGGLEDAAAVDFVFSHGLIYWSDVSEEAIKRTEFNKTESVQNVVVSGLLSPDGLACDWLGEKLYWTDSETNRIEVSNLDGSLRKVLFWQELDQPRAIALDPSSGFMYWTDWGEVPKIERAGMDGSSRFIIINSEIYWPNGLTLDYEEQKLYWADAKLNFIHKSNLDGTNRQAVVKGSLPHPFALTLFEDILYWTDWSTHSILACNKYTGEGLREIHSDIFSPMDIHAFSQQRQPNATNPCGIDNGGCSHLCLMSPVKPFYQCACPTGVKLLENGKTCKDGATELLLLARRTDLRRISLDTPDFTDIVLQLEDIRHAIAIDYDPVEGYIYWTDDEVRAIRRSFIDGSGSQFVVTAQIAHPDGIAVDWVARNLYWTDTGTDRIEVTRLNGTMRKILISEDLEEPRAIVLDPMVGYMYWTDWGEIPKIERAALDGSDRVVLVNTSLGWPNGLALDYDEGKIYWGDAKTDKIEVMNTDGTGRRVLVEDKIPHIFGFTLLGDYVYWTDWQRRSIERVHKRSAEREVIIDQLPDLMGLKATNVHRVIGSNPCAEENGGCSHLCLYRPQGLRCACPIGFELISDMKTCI

[3] = target: T3, GlycoCUB mutant of KRM1ECD (309NQA311→NQS, N-glycan at N309) (human, UniProt Q96MU8 21-392, 309NQA311→NQS, additional N-glycan at N309)
T3 sequence: T1 chain with A294S

Kd [1]: 18900 nM
B1: LRP6_(PE1PE2) fragment (domain or fragment)
chain: T2 chain

Kd [2]: 400 nM
B2: SUMO-DKK1_(Linker-CRD2), SUMO fusion as SPR analyte (domain or fragment)
chain: SDQNHFRGEIEETITESFGNDHSTLDGYSRRTTLSSKMYHTKGQEGSVCLRSSDCASGLCCARHFWSKICKPVLKEGQVCTKHRRKGSHGLEIFQRCYCGEGLSCRIQKDHHQASNSSRLHTCQRH

response (response units) (LRP6_(PE1PE2) fragment): -20
B3: wild-type KRM1ECD as immobilised for SPR, Q96MU8 A311S (protein)
chain: T1 chain with A294S

Kd [3]: 1300 nM
Kd [2]: 1200 nM
B4: full-length DKK1 (ligand)
chain: TLNSVLNSNAIKNLPPPLGGAAGHPGSAVSAAPGILYPGGNKYQTIDNYQPYPCAEDEECGTDEYCASPTRGGDAGVQICLACRKRRKRCMRHAMCCPGNYCKNGICVSSDQNHFRGEIEETITESFGNDHSTLDGYSRRTTLSSKMYHTKGQEGSVCLRSSDCASGLCCARHFWSKICKPVLKEGQVCTKHRRKGSHGLEIFQRCYCGEGLSCRIQKDHHQASNSSRLHTCQRH
